# Experimental data from the domain aggregation screens of Martell et al. (2025).
# Test: soluble fraction after stress (log2 fold change); higher = more stays soluble; pooled small domains, quantitative proteomics
# Details: stress: pH 4
# In short: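 After pH 4 stress, pooled custom libraries of small protein domains were quantified with high-throughput quantitative proteomics. Aggregation propensity is taken from the fold change in each domain's soluble amount following the acid stress. The scale is log2, where higher values mean more stayed soluble.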
row,Sequence,soluble fraction (log2)
1,HMENYIEQLTAKNSEYIHVVTRELVKIGKSDEEIKAILSDILPQIVAAQDQRVLAKDILGTPSEFTAKYAP,0.0161
2,HMEPDDLTVIKGIGPVAAKDLNEQGIITFAQLAKLSDKDVAKIDEHMPFSADQIKDWREQAKELAK,0.0725
3,HMEPDEIVLDHRKRIENSDAIVLIAPIWNFRMPAILEGWIDKVLAPPWAFKFKKLFGNYGYPVGNLKG,-0.121
4,HMEPDTVVVPNFVGKVYASEIEGNEAYSDFTFVIKEGNDPEQDIGVVLKQTPNEGLEVKKGKEITLTINQ,-0.169
5,HMEPEAKIDFILKAAQKRLGLYGYEKTTMQEIAADINMSKAALYYYFPDKESLFKAVVENEQEEYFH,-1.24
6,HMEPEDVIAMERYLASGAIKGIGVTLAGRIIKKFQKETFHIIEEEPERLSEVKGISEKLAREIYQQFTQK,-0.187
7,HMEPERRHLEVPAEAEGERIDRFLASQLENLSRSRIQALIKAGYVRNRRGTIEDPGLRVKPGDAFVVDLPP,0.255
8,HMEPEVEITYFKPDERKAGGAYVTVTGAVIKVDDFERLITMQDGTKIPMDDILSIDGELFLS,-1.08
9,HMEPGEVQVDGLRFIAQPQERNDFEVALEQFRAGNFAAARKSFAAFINTYKQSGYLPSARFW,-0.152
10,HMEPLKLGDATGDGKINLQDVLEMQKHMAGILVLKGKFFTAADVNGNGKIELVDVLSVQKYLAGVTAEV,-0.0932
11,HMEPLVSKVFQVSYQKTADLVALIKSEDSKLLSARGTLISDERTSQIFVQDTPTRLERISMIVNGL,-0.895
12,HMEPMNMYSSIKKVIGVVSGKGGVGKSLVTASLARMMRAKGYHVGIMDADITGPSIPKMYGLHEMA,0.0444
13,HMEPVDYEALRKELMQKVMGLFTQSRDVGIQILSSFGAKKLSDVPDDKLVAFAASVDKALAG,0.138
14,HMEPVQFIQFKIPDGHPWSGQLLREVRLPPGTLVVLLKHDGKNIIPNGETPLLAGDSVILSAASPT,-0.459
15,HMEQAAQPQTGFDPRRLKAGDAVHLLALDQRGVLLEDPKPGAESAPVSVGVAGVRVVVPLREMEALPAG,-0.0942
16,HMEQEVLDLLFDAIRSLPEKYRRLFDMSFEQGLKNAEIAALLHVSESAVKKQKASMIQQLRDDLLRKTGKD,-0.564
17,HMEQFDFTILRELRKRAGLSIGEVSAESGVSAAVISKLERNRTRAELDTLYRLARVFGITAAELLNLAEA,-1.76
18,HMEQIETIFLSAAPYARTHIIHLLETSELFRDKYLTIVETSNGLLIYTEDKNRLLGILNSLT,-1.24
19,HMEQIFTELIMDGRVLGENLHRMGVDETWLLRQLRQQGYHSAREVFLAVADANKQVAVYPVS,-0.776
20,HMEQINVTIQTEKGRIDKVLSEHLPNHSRSQIQQWLKEKHVTVNGETVRANYKVTAGDEIVVTIPEPEV,-0.18
21,HMEQISDEDTLRKMVNEVLDNNQTQLEQYKSGKTNLIGFFVGQTLKKSAGKANPSIVNKLVNEEIYI,0.0623
22,HMEQISIETRIEQLLARLSETEASGFEELFADTSSRADLITTFLALLEMIRLKLVRVFQDGSFGPIRIYKR,-1.5
23,HMEQKISVPALVGRDIEEILADTEVTGNFTIKEADKRVASNRPVGEVLEQDPGTGESAVKGTIITVTVSAG,-0.353

row,Sequence,soluble fraction (log2)
1,HMEQNTKAYEQVRTLTDLLNQYRHEYYNLSAPSVSDQEYDRLFDALAALEKQTGIVMSNSPTQTVG,-0.497
2,HMEQPAPSTTVDILGGGRAALVTANRELGLALADDEIDYLTDSFTQLGRNPVDVELMMFAQA,-0.224
3,HMEQSLNTYSIRTVKESLFLAETKNLNKIEKLVEGIEGRLTLSEALVLFSDKLNAMSVLSHVNANT,-0.273
4,HMEQTIKKYVNVATLNFRSGPSTSYSIISTLSKGTKVEVISTTNNWSKIIYDGKIGYVSSEYLSKSI,≥ 0.43
5,HMEQVPEAVGRRVRQARSDRGWTLDQLAERSEVSRRMIVNVEAGTSNASIATLLRLATALNVGLAELVA,-0.685
6,HMEQVVFNGTGRRKSSIARVRIMSGKGNITVNGKALDEYFGEETLKVIVRQPLTVTDTLDKYDVIATVK,-0.0364
7,HMEQYYVFFAGGMTIGTKEWYESILPENIATSYDDILEGKMMPASLEQIEFYNSHKDYDLYHLFYML,-1.4
8,HMERAFRILELFDLKQDELPITEIAERTGLPISTAHRLLSTLETLGYIAQNPDNGRYRLGLQTFVLGSR,-1.3
9,HMERAPAYPDGLTQREVEVLRLIASGKTDREIAEELFIGVRTVSTHVGNILNKTNSANRTEAASYANQQGL,-1.53
10,HMEREQNIAQGREVVQRELKRLGLTDVFTVEDIGRALKFDDIDEFLSKVGFGDIQTAKITGAIALMQQALR,-0.84
11,HMEREQNIEHGRAIVERELKRLGLSDVYTIADIATALRHDDVDQFLAKIGFGDIQSTQIGGAIAALQQR,-0.328
12,HMEREQPFAVTEAYRGMRLDRFLQAMLPRMSRAAIQDAIDNRVRLGSGRAAKASLRPAIGDTVFFGQRI,-0.17
13,HMERFRQVNAGMTRDDIYQLLGKPTEKTPFPLKNEEVWSWRHQADGQTVALFNIHLDPDGRVTTTSQSMDL,-1.32
14,HMERFVVISKDKYANLREEASTNSKVLAKVDNSYLIYNTNTYNENKDWYSVQIERDGNYYQVGYIHKSQL,-1.82
15,HMERLKRVTLSLNQSNYSVTEIARRLQAITGIKDITVVEDEQAVYLKVDPATFDLTLAQQAV,-0.653
16,HMERLLVSKINGMITEAKVSVEDVVKVVASRGHYPEVKSIDEYPDDFLSRWVVPNFKKIVEMINANKEA,0.239
17,HMERMTSTEILTRDFLTTNSKIVKKSTIEELSEIIHVSPATIIRTVKKMGYSGFSEYKNELINQ,0.0482
18,HMERPEVVAYRLAYASAESLRPALGLVASPSDLEIDERTNTLIVRAVPSVQERVAELVASLDI,-0.889
19,HMERPKSLRELALEHLRNSIIDGSLKMGQVLSERKISEELGVSKSPVREALAQLRDEGLVSIEPQKGARV,0.288
20,HMERPLFVIEDYRRFAGNEVEISLKKGGKKIRGVIAGTPSDAEVTVRTQGGETTVPLGDVKRAHLVYV,0.0919
21,HMERRDEINSVVSRYVSAITEGKYDLAEVDETGKLRVQTEGREVLPEALSRGTLEQFYFAFRMAVGSI,-0.779
22,HMERTQSIEAAREQLGEVTKDNVFETETLGALAILKENEPGEYAKIKADLKGKINMNDLERAVKKAAADQR,-0.0729
23,HMERYFVLVIYDIVDNKKRLKLSKYLLGYGIRVQKSAFEMMITKEKYNKLIKELPTYIEEGEDSIRLY,-0.292

row,Sequence,soluble fraction (log2)
1,HMERYLLRDNIPNALHGERLDRVIAIMTGLSRSAVSALIKSNQVLRNGQIAQSISEKVVEGDELEVHLEP,-0.465
2,HMESDAIAAAIAALPARYREVLLLRYDNGFSYSEISKALDMTEAAVRKTVQRAKEALQRTLQIQEEDT,-0.219
3,HMESDRVAHVVAPGETLFSISGKYGIGMGELVAANPVLESRPPRTGDTLLIRLPENPLPAETDAETLS,-0.858
4,HMESIAEIDRMNAKIFMDEFQDSLSIMQKTTNPETFFSRYDLAMERLDNMVELQQKGIKFTSDLSSLKAQ,-0.564
5,HMESIEGMYKISLLRKQGNAYVIFEDENKEAVEHIFPEKPTALELGTKVIEMFEYKERYDGLI,-0.781
6,HMESILDDFPGLGEKRKKALLEHFGSISKIKAATVGQLREVDGIGFETAAALREFLDANFPA,0.0668
7,HMESIPDELLEAFKQDPAFKQAFYALTAGRQRGYIIHFSQPKQSQTRIGRIEKYKEQIFNGIGLN,-0.125
8,HMESKPLTPSEIKKLRMDANMTQAGLAEVLGMTVKAVEAWESGRNIPSGAADKILRVMQKHPSVIGMMQS,0.247
9,HMESLNDRIKLVFKDSGLTQMDISKRLNIAQSSVSGIISGKANPSKRTLADIADRFDVNLEWLRDGTGPMK,0.199
10,HMESLSHRQKSIVDWVQKNGYASIERMAEQFEVSAQTIRRDVIELSERRILQRHHGGASLPAG,-0.17
11,HMESNDSNIEDDFYEGLKSMRKGDLKMSVVFFTRVIEKKPTFAEAWNRRATVYYMLGKFDKSMFDINETLK,-0.17
12,HMESPELIHILKEAEWQIWQQIQGLPEKQRIAMTLFAMDDLSYQEIADVMKVSVSAIESLLFRARTQLKKY,-0.71
13,HMESPLEQLTNRELQTLQMLGKGLSTKQIAAQLNLSVKTVETYRENLKRKLNLDSGSELIRYAIHRSNE,-0.0124
14,HMESPLNPTDVRRAAMDLLARREHGVEELRLKLKRRFGREEDFETIATEQLQRLVDEDLLSDTRF,-0.948
15,HMESRETGLPVVIISDGRILQDNLKRRGLDLSWLDKQLAEHGYPDFRDVFLLTVDEAGGVYFVPRE,-0.145
16,HMESSNLESQLKKGIVPNLNGLSAKDALFLLENSGFNVKLYGMGSVKKQSLEAGKKYNKGDKITLIL,0.219
17,HMESSYKGFILDIETRQFSPTLIQRRGIAINPSGIVETTTEFSFATQEKVLIEDLKLIIDELDLRADY,-2.31
18,HMESTLNYSQFLSLVNEDRVAEVVIQGKELYVTDVNRSRFKVYAPPDPELIGLLRQKRVIISAKP,0.203
19,HMESVDRIYERVRRYADDVGTAKIPMKELDDDGPLGTAVSRIRERRKRGELTEEWEARFETLPGWTWAA,-0.265
20,HMESWEDSNIANEFKSTIKIAEKRLAEGGDHPELLEKLEALKQAIINENQTEASKLDDQVNDILFDMDD,-0.558
21,HMETEAGIKAYLSSSMIKGIGPVTAQRIVERFGKRTLYVLDQMPEKLLDISGISEAKLEEILNGYRKS,-0.532
22,HMETFGEKDLDELIGRNVELITHDGKVREGLVDSVDRYNVSLVRYLDAGEVAMMVRRREVKAVRLK,-1.12
23,HMETFGLSQRELQILSQLHKGQPLKEFAASLFITESTLKTHLSAIYRKMSVKNRVQAIEKAKQSGL,-0.273
